Assay results from the Human Domainome abundance scans (Beltran et al. 2025).
± gives the uncertainty stated by the source.

B1: RUN and FYVE domain-containing protein 1, residues 639 to 698; numbered along this chain, Q96T51 (parent)
chain: WLKDDEATHCRQCEKEFSISRRKHHCRNCGHIFCNTCSSNELALPSYPKPVRVCDSCHTL

Variants of: B1
Assay: abundance fitness (aPCA) (normalised: wild type 0, dead -1); higher = more abundant; growth selection in yeast, the domain comes from the species named
Conditions: Homo sapiens

With WLKDDTATHCRQCEKEFSISRRKHHCRNCGHIFCNTCSSNELALPSYPKPVRVCDSCHTL [E6T] as the variant, how does the abundance fitness read?
Its abundance fitness is -0.014 ± 0.053.

For WLKDDQATHCRQCEKEFSISRRKHHCRNCGHIFCNTCSSNELALPSYPKPVRVCDSCHTL [E6Q], which abundance fitness is on record?
The abundance fitness was -0.203 ± 0.048.

For WLKDDDATHCRQCEKEFSISRRKHHCRNCGHIFCNTCSSNELALPSYPKPVRVCDSCHTL [E6D], which abundance fitness is on record?
The abundance fitness was -0.078 ± 0.072.

For WLKDDCATHCRQCEKEFSISRRKHHCRNCGHIFCNTCSSNELALPSYPKPVRVCDSCHTL [E6C], which abundance fitness is on record?
The abundance fitness was 0.009 ± 0.046.

With WLKDDFATHCRQCEKEFSISRRKHHCRNCGHIFCNTCSSNELALPSYPKPVRVCDSCHTL [E6F] as the variant, how does the abundance fitness read?
Its abundance fitness is -0.295 ± 0.066.

Which abundance fitness does the source give for WLKDDVATHCRQCEKEFSISRRKHHCRNCGHIFCNTCSSNELALPSYPKPVRVCDSCHTL [E6V] here?
Its abundance fitness is -0.254 ± 0.046.

For WLKDDRATHCRQCEKEFSISRRKHHCRNCGHIFCNTCSSNELALPSYPKPVRVCDSCHTL [E6R], which abundance fitness is on record?
Its abundance fitness is -0.336 ± 0.055.

For WLKDDWATHCRQCEKEFSISRRKHHCRNCGHIFCNTCSSNELALPSYPKPVRVCDSCHTL [E6W], which abundance fitness is on record?
The abundance fitness was -0.388 ± 0.058.

For WLKDDPATHCRQCEKEFSISRRKHHCRNCGHIFCNTCSSNELALPSYPKPVRVCDSCHTL [E6P], which abundance fitness is on record?
The abundance fitness was -0.236 ± 0.075.

For WLKDDLATHCRQCEKEFSISRRKHHCRNCGHIFCNTCSSNELALPSYPKPVRVCDSCHTL [E6L], which abundance fitness is on record?
The abundance fitness was -0.425 ± 0.044.

For WLKDDAATHCRQCEKEFSISRRKHHCRNCGHIFCNTCSSNELALPSYPKPVRVCDSCHTL [E6A], which abundance fitness is on record?
Its abundance fitness is -0.085 ± 0.043.

Which abundance fitness does the source give for WLKDDGATHCRQCEKEFSISRRKHHCRNCGHIFCNTCSSNELALPSYPKPVRVCDSCHTL [E6G] here?
The abundance fitness was 0.001 ± 0.043.

With WLKDDHATHCRQCEKEFSISRRKHHCRNCGHIFCNTCSSNELALPSYPKPVRVCDSCHTL [E6H] as the variant, how does the abundance fitness read?
Its abundance fitness is -0.185 ± 0.057.

With WLKDDYATHCRQCEKEFSISRRKHHCRNCGHIFCNTCSSNELALPSYPKPVRVCDSCHTL [E6Y] as the variant, how does the abundance fitness read?
The abundance fitness was -0.191 ± 0.075.

For WLKDDKATHCRQCEKEFSISRRKHHCRNCGHIFCNTCSSNELALPSYPKPVRVCDSCHTL [E6K], which abundance fitness is on record?
Its abundance fitness is 0.126 ± 0.053.

With WLKDDMATHCRQCEKEFSISRRKHHCRNCGHIFCNTCSSNELALPSYPKPVRVCDSCHTL [E6M] as the variant, how does the abundance fitness read?
The abundance fitness was -0.316 ± 0.052.

For WLKDDIATHCRQCEKEFSISRRKHHCRNCGHIFCNTCSSNELALPSYPKPVRVCDSCHTL [E6I], which abundance fitness is on record?
Its abundance fitness is 0.029 ± 0.059.

For WLKDDSATHCRQCEKEFSISRRKHHCRNCGHIFCNTCSSNELALPSYPKPVRVCDSCHTL [E6S], which abundance fitness is on record?
Its abundance fitness is -0.165 ± 0.041.

With WLKDDNATHCRQCEKEFSISRRKHHCRNCGHIFCNTCSSNELALPSYPKPVRVCDSCHTL [E6N] as the variant, how does the abundance fitness read?
Its abundance fitness is -0.121 ± 0.064.

With WLKDYEATHCRQCEKEFSISRRKHHCRNCGHIFCNTCSSNELALPSYPKPVRVCDSCHTL [D5Y] as the variant, how does the abundance fitness read?
The abundance fitness was -0.258 ± 0.07.

With WLKDDEACHCRQCEKEFSISRRKHHCRNCGHIFCNTCSSNELALPSYPKPVRVCDSCHTL [T8C] as the variant, how does the abundance fitness read?
The abundance fitness was -0.325 ± 0.063.

Which abundance fitness does the source give for WLKDDEAAHCRQCEKEFSISRRKHHCRNCGHIFCNTCSSNELALPSYPKPVRVCDSCHTL [T8A] here?
The abundance fitness was -0.204 ± 0.056.

For WLKDDEAEHCRQCEKEFSISRRKHHCRNCGHIFCNTCSSNELALPSYPKPVRVCDSCHTL [T8E], which abundance fitness is on record?
The abundance fitness was -0.085 ± 0.057.

Which abundance fitness does the source give for WLKDDEAHHCRQCEKEFSISRRKHHCRNCGHIFCNTCSSNELALPSYPKPVRVCDSCHTL [T8H] here?
Its abundance fitness is 0.025 ± 0.054.

With WLKDDEADHCRQCEKEFSISRRKHHCRNCGHIFCNTCSSNELALPSYPKPVRVCDSCHTL [T8D] as the variant, how does the abundance fitness read?
Its abundance fitness is -0.087 ± 0.056.

For WLKDDEAGHCRQCEKEFSISRRKHHCRNCGHIFCNTCSSNELALPSYPKPVRVCDSCHTL [T8G], which abundance fitness is on record?
Its abundance fitness is -0.062 ± 0.036.

Which abundance fitness does the source give for WLKDDETTHCRQCEKEFSISRRKHHCRNCGHIFCNTCSSNELALPSYPKPVRVCDSCHTL [A7T] here?
The abundance fitness was 0.014 ± 0.04.

For WLKDDENTHCRQCEKEFSISRRKHHCRNCGHIFCNTCSSNELALPSYPKPVRVCDSCHTL [A7N], which abundance fitness is on record?
Its abundance fitness is -0.204 ± 0.065.

For WLKDDERTHCRQCEKEFSISRRKHHCRNCGHIFCNTCSSNELALPSYPKPVRVCDSCHTL [A7R], which abundance fitness is on record?
Its abundance fitness is -0.031 ± 0.031.

Which abundance fitness does the source give for WLKDDEDTHCRQCEKEFSISRRKHHCRNCGHIFCNTCSSNELALPSYPKPVRVCDSCHTL [A7D] here?
Its abundance fitness is -0.039 ± 0.068.

With WLKDDEPTHCRQCEKEFSISRRKHHCRNCGHIFCNTCSSNELALPSYPKPVRVCDSCHTL [A7P] as the variant, how does the abundance fitness read?
The abundance fitness was -0.114 ± 0.053.

With WLKDDEQTHCRQCEKEFSISRRKHHCRNCGHIFCNTCSSNELALPSYPKPVRVCDSCHTL [A7Q] as the variant, how does the abundance fitness read?
Its abundance fitness is 0.04 ± 0.058.

For WLKDDEITHCRQCEKEFSISRRKHHCRNCGHIFCNTCSSNELALPSYPKPVRVCDSCHTL [A7I], which abundance fitness is on record?
Its abundance fitness is -0.008 ± 0.05.

Which abundance fitness does the source give for WLKDDEETHCRQCEKEFSISRRKHHCRNCGHIFCNTCSSNELALPSYPKPVRVCDSCHTL [A7E] here?
The abundance fitness was 0.017 ± 0.05.

With WLKDDEHTHCRQCEKEFSISRRKHHCRNCGHIFCNTCSSNELALPSYPKPVRVCDSCHTL [A7H] as the variant, how does the abundance fitness read?
Its abundance fitness is -0.176 ± 0.07.

With WLKDDEFTHCRQCEKEFSISRRKHHCRNCGHIFCNTCSSNELALPSYPKPVRVCDSCHTL [A7F] as the variant, how does the abundance fitness read?
Its abundance fitness is -0.028 ± 0.046.

For WLKDDESTHCRQCEKEFSISRRKHHCRNCGHIFCNTCSSNELALPSYPKPVRVCDSCHTL [A7S], which abundance fitness is on record?
The abundance fitness was 0.092 ± 0.033.

For WLKDDEGTHCRQCEKEFSISRRKHHCRNCGHIFCNTCSSNELALPSYPKPVRVCDSCHTL [A7G], which abundance fitness is on record?
Its abundance fitness is -0.09 ± 0.039.

For WLKDDEWTHCRQCEKEFSISRRKHHCRNCGHIFCNTCSSNELALPSYPKPVRVCDSCHTL [A7W], which abundance fitness is on record?
The abundance fitness was -0.154 ± 0.041.

With WLKDDEVTHCRQCEKEFSISRRKHHCRNCGHIFCNTCSSNELALPSYPKPVRVCDSCHTL [A7V] as the variant, how does the abundance fitness read?
The abundance fitness was -0.108 ± 0.039.

For WLKDDEKTHCRQCEKEFSISRRKHHCRNCGHIFCNTCSSNELALPSYPKPVRVCDSCHTL [A7K], which abundance fitness is on record?
Its abundance fitness is -0.384 ± 0.09.

With WLKDDELTHCRQCEKEFSISRRKHHCRNCGHIFCNTCSSNELALPSYPKPVRVCDSCHTL [A7L] as the variant, how does the abundance fitness read?
Its abundance fitness is -0.234 ± 0.038.

With WLKDDECTHCRQCEKEFSISRRKHHCRNCGHIFCNTCSSNELALPSYPKPVRVCDSCHTL [A7C] as the variant, how does the abundance fitness read?
Its abundance fitness is -0.082 ± 0.048.

With WLKDDEYTHCRQCEKEFSISRRKHHCRNCGHIFCNTCSSNELALPSYPKPVRVCDSCHTL [A7Y] as the variant, how does the abundance fitness read?
Its abundance fitness is -0.092 ± 0.048.

For WLKDDEMTHCRQCEKEFSISRRKHHCRNCGHIFCNTCSSNELALPSYPKPVRVCDSCHTL [A7M], which abundance fitness is on record?
The abundance fitness was -0.302 ± 0.055.
